B1: TPR t1 (parent)
chain: GACCAAUCUGCCCUCAGAGCUCGAGAACAUCUUCGGAUGCAGAGGAGGCAGGCUUCGGUGGCGCGAUAGCGCCAACGUCCUCAACCUCCAAUGCAUCCCACCACAUGAUGAUGCCUGAAGAGCCUUGGUUUUUUG

Variants of: B1
Experiment: polymerase ribozyme fitness, log enrichment relative to wild type (log ratio); higher = more active; in vitro selection for triplet polymerase activity
Method in brief: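 Each subunit of a heterodimeric triplet polymerase ribozyme was mutagenized into a library by PCR, transcribed, and subjected to one round of in vitro selection, run in triplicate. Libraries were annealed with a biotinylated primer, the partner subunit and triplets, incubated frozen at −7 °C, and extended constructs were gel-excised, captured on streptavidin beads and recovered by RT-PCR. Input and output libraries were sequenced on Illumina, keeping genotypes with ≥10 input reads and ≥1 read per output. Fitness is log base 2 of genotype enrichment divided by wild-type enrichment, from inverse-variance-weighted replicate averages.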

Row | Variant | polymerase ribozyme fitness (log ratio)
1 | GACCAAUCUGCCCUCAGAGCUCGAGAACAUCUUCGGAUGCAGAGGAGGCAGGCUUCGGUGGCGCGAUAGCGCCAACGUCAUCAACCUCCAAUGCAUCCCACCACAUGAAGAUGCCUGAAGAGCCUUGGUUUUUUG [C80A U109A] | -6.3
2 | GACCAAUCUGCCCUCAGAGCUCGAGAACAUCUUCGGCUGCAGAGGAGUCAGGCUUCGGUGGCGCGAUAGCGCCAACGUCCUCAACCUCCAAUGCAUCCCACCACAUGUUGAUGCCUGAACAGCCUUGGUUUUUUG [A37C G48U A108U G120C] | -5.53
3 | GACCAAACUGCCCUCAGAGCUCGAGAACAUCUACGGAUGCAGAGGAGGCAGGCUUCGGUGGCGCGAUAGUGCCAACGUCCUCAACCUCCAAUGCAUCCCACCACAUGAUGAUGCCUGAAGAGCCUUGGUUUUUUG [U7A U33A C70U] | -5.78
4 | GACCAAUCUGCCCUCAUAGCUCGAGAACAUCUUCGGAUGCAGAGGAGGCAGCCUUCGGUGGCGCGAUAGCGCCUACUUCCUCAACCUCCAAUGCAUCCCACCACAUGAUGAUGCCUGAAGAGUCUUGGUUUUUUG [G17U G52C A74U G77U C123U] | -2.34
5 | GACCAAUCUGCCCUCAGAGCUUGAGAACAUCUUCGGAUGCAGAGGAGGCAGGCUUCGGUGGCGCGAUAGCGCCAACGUCCUCAACCUCCAAUGCAUCCCACCACAUGAUGAUGCCUGAAAAGCCUUGGUUUUUUG [C22U G120A] | -3.35
6 | GACCAAUCUGCCCUCAGAGCUCGAGAACAUCUUCGGAUGCAGAGGAGGAAGGCUUCGGUGGCGCGAUAGCGCAAACGUCCUCAACCUUCAUUGCAUCCCACCACAUGAUGAUGCCUGAAGAGCUUUGGUUUUUUG [C49A C73A C88U A91U C124U] | -0.744
7 | GACCAAUCUGCCCUCAGAGCUCGAGAACAUCUUCGGAUGCAGAGGAGGCACGCUUCAGUGGCGCGAUAGCGCCAACGUCCUCAACCUCCAAUGCAUCCCACCACAUGAUGAUGCCUGAAGAGCCUUGGUUUUUUG [G51C G57A] | -3.2
8 | GACCAAUCUGCCCUGAGAGCUCGAGAACAUCUUCGGAUGCAGAGGAGGCAGGCUUCGGUGGCGCGAUAGCGCCAACGUCCUCAACCUCCAAUGCAUCCCACCACAUGAUGAUGCCUGAACAGCCUUGGUUUUUUG [C15G G120C] | -0.975
9 | GACCAAUAUGCCCUCAGAGCUCGAGAACAUCUUCGGGUGCAGAGGAGGCAGGCUUCGGUGGCGCGAUAGCGCCAACGUCCUCAACCUCCAAUGCAUCCCCCCACAUGAUGAUGCCUGAAGAGCCUUGGUUUUUUG [C8A A37G A100C] | -0.161
10 | GACCAAUCUGCCCACAGAGCUCGAGAACAUCUUCGGAUGCAGAGGAGACAGGCUUUGGUGGCGCGAUAGCGCCAACGUCCUCAACCUCCAAUGCAUCCCACCACAUGAUGAUGCCUUAAGAGCCUUGGUUUUUUG [U14A G48A C56U G117U] | -5.41
11 | GACCAAUCUGCCCUCAGAGCUCGAGAACAUCUUCGGAUGCAGAGGAGGCAGACUUCGGUGGCGCGAUAGCGCCAACGUCCUCAACCUCCAAUGCAUCCCACCACAUGAAGAUGCCUGAAGAGCCUUGGUUUUUUG [G52A U109A] | -5.76
12 | GACCAAUCUGCCCUCAGAGCUCGAGAACAUCUUCGGAUGCACAGGAGGCAGGCUUCGGUGGCGCGAUACCGCCAACGUCCUCAACAUCCAAUGCAUCCCACCACAUGAUGAUGCCUCAAGAGCCUUGGUUUUUUG [G42C G69C C86A G117C] | -6.61
13 | GACCAAUCUGCCCUCAGAGCUCGAGAAUAUCUUCGGAUGCAGAGGAGGCAGGCUUCGGUGGCGCGAUAGCGCCAACGCCCUCAACCUCCAAUGCAUCCCAUCACAUGAUGAUGCCUGAAGAGCCUUGGUUUUUUG [C28U U78C C101U] | -2.49
14 | GACCAAUCUGCCCUCAGAGCUCGAGAACAUCUUCGGAUUCAGAGGAGGCAGGCUUCGGUGGCGCGAUAGCGCCAACGUCCUCAACCUCCAAUGCAUCCCACCACAUGAUGAUGCCUGAAAAGCCUUGGUUUUUUG [G39U G120A] | -0.0767
15 | GACCAAUCUCCCCUCAGAGCUCGAGAACAUCUUCGGAUGCAGAGGAGGAAGGCUUCGGUGGCGCGAUAGCACCAACGUCCUCAACCUCCAAUGCAUCCCACCACAUGAUGAUGCCUGAAGAGCCUUGGUUUUUUG [G10C C49A G71A] | -2.07
16 | GACCAAUCUGCCCUCAGAGCUCGAGAACAUCUUCGGAUGCAGAGGAGGCAGGCUUCGGUGGCCCGAUAGCGCCAACGUCCUCAACCUCCAAUGCAUCCCACCACAUGAUGAUGCCUGAAGGGCCUUGGUUUUUUG [G63C A121G] | 0.727
17 | GACCAAUCUGCCCUCAGAGCUCGAGAACAUCUUCGGAUGCAGAGGAGGCAGGCUUCGGUGGCGCGAUAGCGCCAACGUCCUAAACCUCCAAUCCAUCCCACCACAUGAUGCUGCCUGAAGAGCCUUGGUUUUUUG [C82A G93C A111C] | -0.977
18 | GACCAAGCUGCCCUCAGAGCUCGAGAACAUCUUCGGAUGCAGAGGAGGCAGGCUUCGGUGGCGCGAUACCGCCAACGUCCUCAACUUCCAAUGCAUCCCACCACAUGAUGAUGCCUGAAGAGCCUUGGUUUUUUG [U7G G69C C86U] | -1.06
19 | GACCAAUCUGCCCUCAGAGCUCGAGAACAUCUUCGGAUGCAAAGGAGGCAGGCUUCGGUGGCGCGAUAGCUCCAACGUCCUCAACCUCCAAUGCAUCCCACCACAUGAUGAUGCCUGAAGAGCCUUGGUUUUUUG [G42A G71U] | -2.41
20 | GACCAAUCUGCCCUCCGAGCUCGAGAACAUCUUCGGAUGCAGAGGAGGCAGGCUUCGGUGGCGCGAUAGCGCCAACGUCCUCAACCUCCAAUGCAUCCCACCACAUGAUGACGCCUGAAGAGCCUUGGUUUUUUG [A16C U112C] | -0.921
21 | GACCACUCUGCCCUCAGAGCUCGAGAACAUCUUCGGAUGGAGAGGAGGCAGGCUUGGGUGGCGCGAUAGCGCCAACGUCCUCAACCUCCAAUGCAUCCCACCACAUGAUGAUGCCUGAAGAGCCUUGGUUUUUUG [A6C C40G C56G] | -2.36

Reference: the RNAGym collection of RNA variant scans (doi:10.1073/pnas.2313332121)
